This is an account of results in patent US20130287807A1, “COMPOUNDS FOR TREATING SYMPTOMS ASSOCIATED WITH PARKINSON'S DISEASE” (priority 2008, published 2013).

Square brackets hold non-standard residues; d marks the D form. Ends that are not written are not given here. pGlu = O=C1CC[C@@H](C(=O)O)N1 Some results are limits rather than exact numbers.

One may read the IC50 as the point on the concentration scale where inhibition reaches its midpoint.

Assay [1] relates to monoclonal antibody MV-003. Kind of assay: In vitro binding assay (ELISA), BSA-coupled peptides, parental antibody MV-003. Also on record: species or system BalbC mice. The settings on record: Table 1A; peptide-BSA on plate, compared to original epitope. The procedure: Peptides derived from Phage Display as well as variants thereof were coupled to BSA and bound to ELISA plates (1 μM; as indicated in the respective figures) and subsequently incubated with the monoclonal antibody that was used for the screening procedure to analyse binding capacity of identified peptides.
Legend to Table 1A: the binding capacity is coded by the following binding code: 1:X describes the dilution factor of the parental AB.
In general terms: An ELISA detects its analyte on a solid surface through an enzyme-linked reagent.

The test system of assay [2] is monoclonal antibody MV-003. The assay is described as follows: In vitro inhibition assay (ELISA), MV-003 binding to original epitope. Further details: species or system BalbC mice. To be noted: Table 2A; OD at 10 ug peptide compared to original peptide. The procedure: Different amounts of peptides (concentrations ranging from 10 μg to 0.08 μg; serial dilutions; for MV-002: concentrations ranging from 5 μg to 0.03 μg; serial dilutions), derived from Phage Display were incubated with the monoclonal antibody that was used for the screening procedure. Peptides diminishing subsequent binding of the antibody to the original epitope coated on ELISA plates were considered as inhibiting in this assay.
Legend to Table 2A: the inhibition capacity is coded by the following code: Weak inhibition means more peptide is required to lower AB binding than with the original epitope; strong inhibition means similar peptide amounts are required for mimotope and original epitope for lowering AB binding. Mimotopes are compared to the original peptide as standard. OD at 10 ug peptide used in the assay is used to calculate the competition capacity compared to original peptide.

The test system of assay [3] is Aβ/truncated/modified forms. Kind of assay: In vivo characterisation of mimotopes: detection of Aβ/truncated/modified forms. Further details: species or system C57/B16 mice; key: +: All peptides listed in Table 5 mount specific immune reactions against full length and/or truncated and modified forms of Aβ or fragments thereof. The settings on record: Table 5, MV-003 derived mimotopes. The method, then: (§1) Inhibiting as well as non-inhibiting peptides were coupled to KLH and injected into mice (wildtype C57/B16 mice; subcutaneous injection into the flank) together with an appropriate adjuvant (aluminium hydroxide). Animals were vaccinated 3-6 times in biweekly intervals and sera were taken biweekly as well. Titers to injected peptides, as well as to an irrelevant peptide were determined with every serum. Furthermore, titers against the recombinant human Aβ protein, and against original peptides were determined respectively. In general sera were analysed by reaction against peptides coupled to Bovine Serum Albumin (BSA) and recombinant full length proteins which were immobilised on ELISA plates. Titers were determined using anti mouse IgG specific antibodies. For detailed results see FIGS. 15, 16 and 17 respectively and FIGS. 23, 24 and 25 respectively.
(§2) Female C57/b16 mice, 5-6 mice per group, were subcutaneously immunized with 30 μg peptide coupled to KLH. Control groups were administered original epitope-KLH conjugates respectively. As adjuvant alum was used (always 1 mg per mouse). […] The in vitro ELISA assay to determine the antibody titer was performed with sera of single mice after each vaccination in a two week interval (see FIGS. 15 and 16 respectively). The wells of the ELISA plate were coated with mimotope-BSA conjugate and an irrelevant peptide-BSA conjugate (negative control). The positive control was performed by reaction of the parental antibody with the respective mimotope-BSA conjugate. The detection was performed with anti-mouse IgG. Additionally, recombinant proteins were immobilised on ELISA plates and sera reacted accordingly. FIGS. 15 to 17 show representative examples for assays used to characterise mimotopes in vivo.
as §2, with “FIGS. 25” for “FIGS. 15”, “and 26” for “and 16”, “respectively). Titers were calculated as OD max/2 in all figures shown.” for “respectively).”, “FIGS. 23, 24 and 25” for “FIGS. 15 to 17”

The next assay concerns p4373. Kind of assay: Mimotope vaccination, serum ELISA against p4373. Type of assay: in vivo, C57/B16 mice. The settings on record: peptide-KLH vaccines with alum; FIG. 16. The procedure: as §1
(§3) Female C57/b16 mice, 5-6 mice per group, were subcutaneously immunized with 30 μg peptide coupled to KLH. Control groups were administered original epitope-KLH conjugates respectively. As adjuvant alum was used (always 1 mg per mouse). […] The in vitro ELISA assay to determine the antibody titer was performed with sera of single mice after each vaccination in a two week interval (see FIGS. 15 and 16 respectively). The wells of the ELISA plate were coated with mimotope-BSA conjugate and an irrelevant peptide-BSA conjugate (negative control). […]

The subject of another assay is p4371. The assay is described as follows: Mimotope vaccination, serum ELISA against p4371. Type of assay: in vivo, C57/B16 mice. The settings on record: peptide-KLH vaccines with alum; FIG. 16. The procedure: as §1, §3
For a further assay, the system named is amyloid plaques. The assay is described as follows: Tg2576 AD mouse model: area occupied by amyloid plaques after mimotope vaccination. It is filed as in vivo, Tg2576 mice. To be noted: FIG. 18 Gr2 p4381, Gr3 p4390, Gr4 p4715, FIG. 26 Gr2 p4675, FIG. 19 Gr2 p4395.
Assay [4] addresses monoclonal antibody MV-003. Kind of assay: inhibition ELISA, competitor coated original epitope p4373; code 1 = weaker than original epitope.
Assay [5] addresses monoclonal antibody MV-003. Kind of assay: ELISA on peptide-BSA; code 3 = strong binding, OD halfmax 1:>60000.
Assay [6] has as its target monoclonal antibody MV-004. The assay is described as follows: inhibition ELISA, competitor coated original epitope p4372; code 2 = strong inhibition (as original epitope).
Assay [7] has as its target DAEFRH-peptide-specific monoclonal antibody (Example 1). The assay is described as follows: inhibition ELISA, competitor plate-bound DAEFRH-C-BSA; inhibitory capacity.
Assay [8] has the same target. Kind of assay: inhibition ELISA, competitor plate-bound DAEFRH-C-BSA.
The target of assay [9] is monoclonal antibody MV-004. Kind of assay: ELISA on peptide-BSA; code 3 = strong binding, OD halfmax 1:>96000.
Assay [10] addresses monoclonal antibody MV-003. Kind of assay: inhibition ELISA, competitor coated original epitope p4373; code 2 = strong inhibition (as original epitope).
Assay [11] concerns the target monoclonal antibody MV-004. Kind of assay: ELISA on peptide-BSA; code 1 = weak binding, OD halfmax 1:<24000.
Assay [12] deals with monoclonal antibody MV-004. The assay is described as follows: inhibition ELISA, competitor coated original epitope p4372; code 1 = weaker than original epitope.

For IRYDAPLC [p4397], the “Binding Capacity” value in assay [1] is given as 1 (weak binding :<16000). For the same molecule, the “Inhibition Capacity” value in assay [2] is listed as 1 (Weaker than original epitope (OD of 10 ug peptide below 12 times of original peptide)). Moreover, in assay [3], the “Detection of Aβ/truncated/modified forms” value is on record as “+”.
Regarding EFRHDS-C (EFRHDSC) [p4371], the “immune response / titers against p4373” value in the assay on p4373 is recorded as “mount relevant titers”.
Consider “p(E)FRHDS-C ([pGlu]FRHDSC) [p4373, non-mimotope peptide, pyroglutamate-modified aa3-8 of Aβ]”, for which the “immune response / titers against p4371” value with p4371 was “mount relevant titers”.
For the molecule IRYDMAGC [p4399], the “Binding Capacity” value in assay [1] was 1 (weak binding :<16000). Besides, the “Detection of Aβ/truncated/modified forms” value in assay [3] is “+”.
VRWDVYPC [p4396]: the “Binding Capacity” value in [1] was 1 (weak binding :<16000). Further, the “Detection of Aβ/truncated/modified forms” value in assay [3] is on record as “+”.
Consider IRWDTPC [p4395], for which, in the assay on amyloid plaques (Tg2576, 6 s.c. injections monthly, peptide-KLH on ALUM, mAb 3A5 staining, cortex and hippocampus, control group 0.35%), the “average occupation (relative area occupied by amyloid deposits in the brain)” value is given as 0.21%. Besides, the “reduction of area occupied by amyloid plaques following mimotope treatment” value with amyloid plaques (versus PBS-ALUM control group) is listed as 38%. The “Binding Capacity” value in [1] is 2 (medium binding :16-60000). In addition, the “Inhibition Capacity” value in [2] is listed as 1 (Weaker than original epitope (OD of 10 ug peptide below 12 times of original peptide)). Further, in [3], the “Detection of Aβ/truncated/modified forms” value is recorded as “+”.
In turn, IRWDQPC [p4756] came in with an OD at 10 ug peptide relative to OD of original peptide (inhibition ELISA) in assay [4] of 5 to 12 fold. Also, the dilution factor of the parental antibody at OD halfmax (1:X) (dilutionfactor(1:x)) in assay [5] was above 60000.
The molecule ELWHRAFC [p4665] showed an OD at 10 ug peptide as multiple of OD with original peptide in assay [6] below 2 fold.
For the molecule EAEFRGC [Peptide 3006], the IC50 in assay [7] and in [8] was below 0.5 µg/mL each time.
With YAEFRGC [Peptide 3005], the IC50 in [7] and in assay [8] was above 0.5 µg/mL each time.
As for EVWHRLQC [p4419], the OD at 10 ug peptide as multiple of OD with original peptide in [6] was below 2 fold. Besides, the OD halfmax 1:X (dilution factor of the parental antibody at half-maximal OD) (dilutionfactor(1:x)) in assay [9] was above 96000.
In turn, IRWDTSLC [p4728] yielded an OD at 10 ug peptide relative to OD of original peptide (inhibition ELISA) in assay [10] below 5 fold. Besides, the dilution factor of the parental antibody at OD halfmax (1:X) (dilutionfactor(1:x)) in [5] is above 60000.
For the molecule EVWHRHC [p4789], the OD halfmax 1:X (dilution factor of the parental antibody at half-maximal OD) (dilutionfactor(1:x)) in assay [11] was below 24000. The OD at 10 ug peptide as multiple of OD with original peptide in assay [12] lay in the range of 2 to 5 fold.
As to DKELRIC [Peptide 3001], the IC50 in [7] and in [8] was below 0.5 µg/mL in each case.
In turn, ERWHEKHC [p4418] displayed an OD at 10 ug peptide as multiple of OD with original peptide in assay [6] below 2 fold. Also, the OD halfmax 1:X (dilution factor of the parental antibody at half-maximal OD) (dilutionfactor(1:x)) in assay [9] was above 96000.
As to ERWHEKC [p4790], in [11], the OD halfmax 1:X (dilution factor of the parental antibody at half-maximal OD) (dilutionfactor(1:x)) is below 24000. The molecule further yielded an OD at 10 ug peptide as multiple of OD with original peptide in assay [6] below 2 fold.
In the case of DWELRIC [Peptide 3002], the concentration for half-maximal inhibition (IC50) in assay [7] and in [8] was above 0.5 µg/mL throughout.
